The data set concerns the molecule itself. Description: single-molecule photobleaching step analysis.

The values that follow come from PMC4470572 (Nature communications, 2014).

A word on the stoichiometry N: it is the number of molecules, sites or subunits per partner or assembly.

B1: DIC1-eGFP-3xFLAG (dynein intermediate chain 1) (natural protein, mouse, UniProt O88485 1-628, looked up)
chain: MSDKSDLKAELERKKQRLAQIREEKKRKEEERKKKEADMQQKKEPVQDDSDLDRKRRETEALLQSIGISPEPPLVPTPMSPSSKSVSTPSDAGSQDSGDLGPLTRTLQWDTDPSVLQLQSDSELGRRLHKLGVSKVTQVDFLPREVVSYSKETQTPLATHQSEEDEEDEEMVEPKIGHDSELENQEKKQETKEAPPRELTEEEKQQILHSEEFLIFFDRTIRVIERALAEDSDIFFDYSGRELEEKDGDVQAGANLSFNRQFYDEHWSKHRVVTCMDWSLQYPELMVASYSNNEDAPHEPDGVALVWNMKFKKTTPEYVFHCQSSVMSVCFARFHPNLVVGGTYSGQIVLWDNRSHRRTPVQRTPLSAAAHTHPVYCVNVVGTQNAHNLITVSTDGKMCSWSLDMLSTPQESMELVYNKSKPVAVTGMAFPTGDVNNFVVGSEEGTVYTACRHGSKAGIGEVFEGHQGPVTGINCHMAVGPIDFSHLFVTSSFDWTVKLWTTKHNKPLYSFEDNADYVYDVMWSPVHPALFACVDGMGRLDLWNLNSDTEVPTASVAIEGASALNRVRWAQGGKEVAVGDSEGRIWIYDVGELAVPHNDEWTRFARTLVEIRANRADSEEEGAVELAA
In the case of B1, the “stoichiometry N” value is 2.
